Reference: PMC6642148

Target: RAS-binding domain (RBD) of RAF1, RAF1-RBD (52–131) (Homo sapiens) (UniProt P04049)
Assay: ITC; GMPPNP-bound KRAS
Settings: domain or fragment

Kd: 217 nM
Substance: KRAS (2–169), GMPPNP-bound (from UniProt P01116-2 2-169)
